Results as given in the RNAGym collection of RNA variant scans (doi:10.1073/pnas.2313332121).

B1: TPR t1 (parent)
chain: GACCAAUCUGCCCUCAGAGCUCGAGAACAUCUUCGGAUGCAGAGGAGGCAGGCUUCGGUGGCGCGAUAGCGCCAACGUCCUCAACCUCCAAUGCAUCCCACCACAUGAUGAUGCCUGAAGAGCCUUGGUUUUUUG

Variants of: B1
Experiment: polymerase ribozyme fitness, log enrichment relative to wild type (log ratio); higher = more active; in vitro selection for triplet polymerase activity
Summary of the method: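 Only genotypes with ≥10 input reads and ≥1 read per output were kept after Illumina sequencing of input and output libraries. These libraries were PCR-built, transcribed mutants of each subunit of a heterodimeric triplet polymerase ribozyme, each put through one triplicate in vitro selection round with frozen incubation at −7 °C, gel excision of extended constructs, streptavidin-bead capture and RT-PCR. Fitness is a logarithmic ratio of genotype enrichment to wild-type enrichment, from inverse-variance-weighted replicate averages, with the logarithm in base 2.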

Going from GACCUAUCUGCCCUCAGAGCUCGAGAACAUCUUCGGAUGCAGAGGAGGCAGGCUUCGGUGGAGCGAUAGCGCCAACGUCCUCAACCUCCAAUGCAUCCCACCACAUGAUGAUGCCUGAAGAGCCUUGGUUUUUUG [A5U C62A] to GACCAAUCUGCCCUCAGAGCUCGAGAACAUCUUCGGAUGCAGAGGAGGCAGGCUUCGGUGGCGCGAUAGCGCAAACGUCCUCAACCUUCAAUGCAUCCACCCACAUGAUGAUGCCUGAAGAGCCUUGGUUUUUUG [C73A C88U C99A A100C], the “polymerase ribozyme fitness (log ratio)” value falls from -0.777 to -3.87.

First: GACCAAUCUGCCCUCAGAGCUCGAGAACAUCUUCGGAUGCAGAGGAGGCAGGCUUCGGUGGCGCGAUAGCGCGAACGUCCUCAACCUCCAAUGCAUCCCACCACAUGAUGAUGCCUGAACAGCCUUGGUUUUUUG [C73G G120C]
Second: GACCAAUCAGCCCUCUGAGCUCGAGAACAUCUUCGGAUGCAGAGGAGGCAGGCUUCGGUGGCGUGAUAGCGCUAACGUCCUCAACCUCCAAUGCAUCCCACCACAUGAUGAUGCCUGAAGAGCCUUGGUUUUUUG [U9A A16U C64U C73U]
The “polymerase ribozyme fitness (log ratio)” value of the first is lower: 0.461 for the first, 0.678 for the second.

First: GACCAAUCUGCCCUCAGAGCUCGAGAACAUCUUCGGAUGCAGAGGAGGCAUGCUUCGGUGGCGCGAUAGCGCCAACGUCCUCAACCUCCAAUGCAUCCCACCACAUGAUGAUGCCUGAAAAGCCUUGGUUUUUUG [G51U G120A]
Second: GACCAAUCUGCCCUCAGAGCUCGAGAACAUCUUCGGAUGCAGAGGAGGCAGGCUUCGGUGGCACGAUAGCGCCAACGUCCUCAACCUCCAAUGCAUCCCACCACAUGAUGAGGCCUGAAGAGCCUUGGUUUUUUG [G63A U112G]
The “polymerase ribozyme fitness (log ratio)” value of the first is lower: -2.64 for the first, -1.1 for the second.

Going from GACCAAUCUGCCGUCAGAGCUCGAGAACAUCUUCGGAUGCAGAGGAGGCAGGCUUCGCUGGCGCGAUAGCGCCAACGUCCUCAACCUCCAACGCAUCCCACCACAUGAUGAUGCCUGAAGAGCCUUGGUUUUUUG [C13G G58C U92C] to GACCAAUCUGCCCUCAGAGCUCGAGAACAUCUUCGGAUGCAGAGGAGGCAGGCUUCGGUGGCGCGAUAGCGCCAACGUCCUCAACCUCCAAAGCAUCCCACCACAUGAUGACGCCUGAAGCGCCUUGGUUUUUUG [U92A U112C A121C], the “polymerase ribozyme fitness (log ratio)” value rises from -3.7 to -0.365.

Compared with GACCAAUCUGUCCUCAGAGCUCGAGAACAUCUUCGGAUGCAGAGGAGGCAGGCUUCGGUGGCGCGAUAGCGCCAACGUCCUCAACCUCCAAUGCAUCCCACCACAUGAUGAUGCCUGGAGAGCCUUGGUUUUAUG [C11U A118G U133A], GAGCAAUCUGCCCUCUGAGCUCGAGAACAUCUUCGGAGGCAGAGGAGGCAGGCUUCGGUGGCGCGAUAGCGCCAACGUCCUCAACCUCCAAUGCAUCCCACCACAUGAUGAUGCCUGAAGAGCCUUGGUUUUUUG [C3G A16U U38G] is lower in “polymerase ribozyme fitness (log ratio)” value: -0.694 for the first, -4.66 for the second.

Going from GACCAAUCUGCCCUCAGAGCUCGAGAACAUCUUCGUAUGCAGAGGAGGCAGGCUUCGGUGGCGCGAUAGGGCCAACGUCCUCAACCUCCAAUGCAUCCCACCACAUGAUGAUGCCUGAAGAGCCUUGGUUUUUUG [G36U C70G] to GACCAAUCUGCCCUCAGAGCUCGAGAACAUCUUUGGAUGCAGAGGAGGCAGGCUUAGGUGGCGCGAUAGCGCCAACGUCCUCAACCUCCAAUGCAUCCCACCACAUGAUGAUGUCUGAAGAGCCUUGGUUUUUUG [C34U C56A C114U], the “polymerase ribozyme fitness (log ratio)” value falls from -4.21 to -4.57.

First: GACCAAUCUGCCCGCAGAGCUCGAGAACAUCUUCGGAUGCAGAGGAGGCAGGCUUCGGUGGCGCGAUAGGGCCAACGUCCUCAACCUCCAAUGCAUCCCACCACAUGAUGAUGCCGGAAGAGCCUUGGUUUUUUG [U14G C70G U116G]
Second: GACCAAUCUGCCCUCAGAGCUCGAGAACAUCUUCGGAUGCUGAGAAGGCAGGCUUAGGUGGCGCGAUAGCGCCAACGUCCUCAACCUCCAAUGCAUCCCACCACAUGAUGAUACCUGAAGAGCCUUGGUUUUUUG [A41U G45A C56A G113A]
The “polymerase ribozyme fitness (log ratio)” value of the first is lower: -5.13 for the first, -3.04 for the second.

Going from GACCAAUCUGCCCUCAGAGCUCGAGAACAUCUUCGGAGGCAGAGGAGGCAGGCUUCGGUGGCGCGAUAGCGCGAACGUCCUCAACCUCCAAUGCCUCCCCCCACAAGAUGAUGCCUGAAGAGCCUUAGUUUUUUG [U38G C73G A95C A100C U106A G127A] to GACCAAUCUGCCCUCAGAGCUCGAGAACAUCUUCGGAUGCAGAGGAGACAGGCUUCGGUGGCGUGAUAGCGCCAACGUCCUCAACCUCCAAUGCAUCCCACCACAUGAUGGUGCCUGAAGAGCCUUGGUUUUUUG [G48A C64U A111G], the “polymerase ribozyme fitness (log ratio)” value rises from -2.6 to -0.284.

First: GACCAAUCUGCCCUCAGAGCUCGAGAACAUCUUCGGAUGCAGAGGAGGCAGGCUUCGGUGGCGCGAUAGCGCCAACGUCCUCAACCACCAAUACAUCCCACCACAUGAUGAUGCCUGAAGAGCCUUGGUUUUUUG [U87A G93A]
Second: GACCAAUCUGCUCUCAGAGCUCGAGAACAUCUUCGGAUGCAGAGGAGGCAGGCUUCGGUGGCGCGAUAGCGCCAACGUCCUCAACCUCUAAUGCAUCCCACCACAUGAUGAUGCCUGAAGAGCCUUGGUUUUUUG [C12U C89U]
The “polymerase ribozyme fitness (log ratio)” value of the first is lower: -0.908 for the first, 0.399 for the second.

GACCAAUCUGCCCUCAGAGCUCGAGAACAUCUUCGGAUGCAGAGGAGGCAGGCUUCGGUGGCGCGAUAGCGCCAACGUCGUCAACCGACAAUGCAUCCCACCACAUGAUGAAGCCUGAAGAGCCUUGGUUUUUUG [C80G U87G C88A U112A] and GACCAAUCUGCCCUCAGAGCUAGAGAACAUCUUCGGAUGCAGAGGAGGCAGGUUUCGGUGGCGCGAUAGCGCCAACGUCCUCAACCUCCAAUGCAUCCCACCACAUGAUGAUUCCUGAAGAGCCUUGGUUUUUUG [C22A C53U G113U] are within 0.2 log units of each other in “polymerase ribozyme fitness (log ratio)” value: -4.77 for the first, -4.93 for the second.

With GACCAAUCUGCCCUCAGAGCUCGAGAACAUCUUCGGAUGCAGAGGAGUCAGGCUUCGGUGGCGCGAUAGCGCCAACGUCCUCAACCUCCAAUGCAUCCCACCACCUGAUGAUGCCUGAAGAGCCUUGGUUUUUUG [G48U A105C] the “polymerase ribozyme fitness (log ratio)” value was -2.86.
